Experimental data taken from the nanobody polyreactivity screen of Harvey et al. (2022).

Experiment: yeast display, Sf9 membrane polyspecificity reagent, FACS + sequencing; frameworks hold sequencing errors
Procedure, shortened: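 A nanobody's polyreactivity label depends on the gate it was sorted from. Yeast display cells were stained with 10% biotinylated, detergent-solubilized Sf9 membrane reagent for 1 hour at 4 °C, enriched on streptavidin microbeads and sorted by FACS. The low and high (top ~1%) gates were set on anti-HA fluorescence for expression and streptavidin fluorescence for reagent binding.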

Row | Sequence | polyreactivity (PSR sort gate)
1 | QVQLVESGGGLVQAGGSLRLSCAASGRIFGDYGMGWYRQAPGKDRELVAAITDRGGTTYYADSVKGRFTISRDNAKNTVYVQKNSLQPEDTAVYYCNADTVVVWYSPSREYDYWGQGTQVTVSS | low polyreactivity
2 | QVQLVESGGGLVQAGGSLRLSCAASGRIFGEYAMGWYRQAPGKERELVAAISGGGSTYYADSVKGRFTISRDNAKNTVYLQMNSLKPEDTAVFYCAVYSVYHEYDYWGQGTQVTVSS | low polyreactivity
3 | QVQLVESGGGLVQAGGSLRLSCAASGRIFGFNAMGWYRQAPGKERQLVAAISGRSGRTYYADSVKGRFTISRDNAKNTVYLQLNSLIPEDTAVYYCNTVGYRGPSWYVYWGQGTQVTVSS | high polyreactivity
4 | QVQLVESGGGLVQAGGSLRLSCAASGRIFGFYTIGWYRQAPGKERELVATISWSGSGTYYADSVKGRFTISRDNAKNTVYLQMNSLKPEDTAVYYCNADWYYVGYDYWGQGTQVTVSS | low polyreactivity
5 | QVQLVESGGGLVQAGGSLRLSCAASGRIFGGNAMGWYRQAPGKERELVAAINSSGGRTYYADSVKGRFTISRDNAKNTVYLQMNSLKPEDTAVYYCAARVGGNWYDYWGQGTQVTVSS | high polyreactivity
6 | QVQLVESGGGLVQAGGSLRLSCAASGRIFGGYAMGWYRQAPGKERELVAAIRWSGGSTYADSVKGRFTISRDNAKYTVYLQMNSLKPEDTAVYYCNTVRSPPGHDYWGQGTQVTVSS | low polyreactivity
7 | QVQLVESGGGLVQAGGSLRLSCAASGRIFGGYAMGWYRQAPGKERELVAAISNGGSTYYADSVKGRFTISRDNAKNTVYLQMNSLKPEDTAVYYCAARWNWTGYRYDHWGQGTQVTVSS | low polyreactivity
8 | QVQLVESGGGLVQAGGSLRLSCAASGRIFGGYDMGWYRQAPGKERELVAAMTSDSSTTYADSVKGRFTISRDNAKNTVYLQMNSLKPEDTAVYYCAVQVNGPVFYRPYLDYDYWGQGTQVTVSS | low polyreactivity
9 | QVQLVESGGGLVQAGGSLRLSCAASGRIFGHYAMGWYIQAPGKERELVAAISRGGSTNYADSVKGRFTISRDNAKNTVYLQINSLKPVDNAVYYCNAAYSDYEYDYWGQGTQVSVSS | low polyreactivity
10 | QVQLVESGGGLVQAGGSLRLSCAASGRIFGHYAMGWYRQAPGKEMELVAAITIGGSTYYADSVKGRFTISRDNAKNTVYLQMNSLKPEDTAVYYCAKVGSNYRGRLGYWGQGTQVTVSS | low polyreactivity
11 | QVQLVESGGGLVQAGGSLRLSCAASGRIFGHYAMGWYRQAPGKERELVAAISRGGSTYYADSVKGRFTISRDNAKNTVYLQMNSLKPEDTAVYYCNTTKAYGSLWWRGDYWGQGTQVTVSA | high polyreactivity
12 | QVQLVESGGGLVQAGGSLRLSCAASGRIFGHYAMGWYRQAPGKERELVASITDGTSTNYADSVKGRFTISRDNAKNTVYLQMNSLKPEDTADYYCAADDRLQFPRGDYCGQGTQVTVSS | low polyreactivity
13 | QVQLVESGGGLVQAGGSLRLSCAASGRIFGINAMGSYRQAPGKERELVAAINWSGGSTYYADSVKGRFTISRDNAKNTVYLQMNSLKPEDTAVYYCAAQKYKRVGYWGQGTQVTVSS | high polyreactivity
14 | QVQLVESGGGLVQAGGSLRLSCAASGRIFGINVMGWYRQAPGKERELVAAISYRTGSTYYADSVKGRFTISRDNAKNTVYLQMNSLKPEDTAVYYCAAQRRIRTAWYDYWGQGTQVTVSS | high polyreactivity
15 | QVQLVESGGGLVQAGGSLRLSCAASGRIFGIYAMGWYRQAPGKERELVAAINSGDSTYADSVKGRFTISRDNAKNTVYLQMNSLKPEDTAVYYCAAEESTSSWSINDYWGQGTQVNVSS | low polyreactivity
16 | QVQLVESGGGLVQAGGSLRLSCAASGRIFGIYAMGWYRQAPGKERELVAAITWNGGSTYYADSVKGRFTNSRDNAKNTVYLQMNSLKPEDTAVYYCAARTADYSYGRRVVTRYGYWGQGTQVTVSS | high polyreactivity
17 | QVQLVESGGGLVQAGGSLRLSCAASGRIFGIYAMGWYRQAPGKERELVASITDGTITNYADSVKGRFTISRDNAKNTVYLQMNSLIPEDTAVYYCAAGTQAHAYVVRPIEMDYWGQGTQVTVSS | low polyreactivity
18 | QVQLVESGGGLVQAGGSLRLSCAASGRIFGLNAMGRYRQAPGKERELVAAISERDGSTYYADSVKGRFTISRDNAKNTVYLQMNSLKPEDTAVYYCAAEKPVHYVRGVHYDYWGQGTQVTVSS | low polyreactivity
19 | QVQLVESGGGLVQAGGSLRLSCAASGRIFGLNAMGWYRQAPGKERELVAAIDRSGASTYYADSVKGRFTISRDNAKNTVYLQMNSLKPEDTAVYYCAAESYLSGEEYDYWGQGTQVTVSS | high polyreactivity
20 | QVQLVESGGGLVQAGGSLRLSCAASGRIFGLNTMGWYRQAPGKERELVAAITSSAGSTYYADSVKGRFTISRDNAKNTVYLQMNSLKPEDTAVYYCAARVSYLGSFTSQRYYYWGQGTQVTVSS | high polyreactivity
21 | QVQLVESGGGLVQAGGSLRLSCAASGRIFGLYAMGWYRQAPGKARELVAAISTRGGSTRYADSVKGRFTISRDTAKNTVYLQMNSLKPEDTAVYYCAKQPKPPPVTGYDYWGQGTQVTVSS | high polyreactivity
22 | QVQLVESGGGLVQAGGSLRLSCAASGRIFGLYAMGWYRQAPGKERELVAAIRGRGGRTSYADSVKGRFTISRDNAKNTVYLQMNSLKPEDTAVYYCNAELYPWPGVVRYNYWGHGTQVTVSS | high polyreactivity

Row | Sequence | polyreactivity (PSR sort gate)
23 | QVQLVESGGGLVQAGGSLRLSCAASGRIFGLYAMGWYRQAPGKERELVAAISRRGGTTYYADSVKGRFTISRDNAKNTVYLQMNSLKPEDTAVYYCAAATVYLSWYYWGQGTQVTVSS | high polyreactivity
24 | QVQLVESGGGLVQAGGSLRLSCAASGRIFGLYAMGWYRQAPGKERELVAAISWSGGRTYYADSVKGRFTISRDNAKNNVYLQMNSLKPEDTAVYYCAARSYYRSQYGFDYWGQGTQVTVSS | high polyreactivity
25 | QVQLVESGGGLVQAGGSLRLSCAASGRIFGLYAMGWYRQAPGKERELVAAITSSTGSTYYADSVKGRFTISRDNAKNTVYLQMNSLKPEDTAVYYCAARRYGRNWHYDYWGQGTQVTVSS | high polyreactivity
26 | QVQLVESGGGLVQAGGSLRLSCAASGRIFGLYARGWSRQAPGKERELVAAYADSVKGRFTISRENAKNTVYLQMNSLKPEDTAVYYCAKGPLYAGYSIDLRDFNYWGQGTQVTVSS | low polyreactivity
27 | QVQLVESGGGLVQAGGSLRLSCAASGRIFGNNAMGWYRQAPGKERELVAAITSGGSTNYADSVKGRFTISRDNAKNTVYLQMNSLKPEDTAVYYCAKRWVYKYRHYDYWGQGTQVTVSS | low polyreactivity
28 | QVQLVESGGGLVQAGGSLRLSCAASGRIFGNYAMGWYRQAPGKERELVAAITSGARTYYADSVKGRFTISRDNAKNTVYLQMNSLKPEDTAVYYCAAYHKSYSNRYDYWGQGTHVTVSS | high polyreactivity
29 | QVQLVESGGGLVQAGGSLRLSCAASGRIFGPNAMGWYRQAPGKERELVASISYSGGSTYYADSVKGRFTISRDNAKNTVYLQMNSLKPEDTAVYYCAKGGYWRGYNYWGQGTQVTVSS | low polyreactivity
30 | QVQLVESGGGLVQAGGSLRLSCAASGRIFGPYAMGWYRPAPGKERELVAVISLSGGRTYYADSVKGRFTISRDNAKNTVYLQMNSLKPEDTAVYYCAAARIYVGRRFDFWGQGTQVTVSS | high polyreactivity
31 | QVQLVESGGGLVQAGGSLRLSCAASGRIFGPYAMGWYRQAPGKERELVAAISWSGGSTYYADSVKGRFTISRDNAKNTVYLQMNSLKPEDTAVYYCAARERRVYGDRFYKLDYWGQGTQVTVSS | high polyreactivity
32 | QVQLVESGGGLVQAGGSLRLSCAASGRIFGPYTMGWYRQAPGKERELVAAISWSGGSTYYADSVKGRFTISRDNAKNTVYLQMNSLKPEDTAVYYCNADHPFPQYEGGSWGQGTQVTVSS | low polyreactivity
33 | QVQLVESGGGLVQAGGSLRLSCAASGRIFGPYTMGWYRQAPGKERELVARISRRGGSTYYADSVKGRFTISRDNAKNTVYLQMNSLKPEDTAVYYCARSQAVYDGWFAKFGYWGQGTQVTVSS | low polyreactivity
34 | QVQLVESGGGLVQAGGSLRLSCAASGRIFGRNAMGWYRQAPGKERELVAAISSSGGRTYYADSVKGRFTISRDNAKNTVYLQMNSLKPEDTAVYYCAAVGSLYYYRYDYWGQGTQVTVSS | high polyreactivity
35 | QVQLVESGGGLVQAGGSLRLSCAASGRIFGRNTMGWYRQAPGKERELVAVISFRGGSTYADSVKGRFTISRDNAKNTVYLQMNSLKPEDTAVYYCARTAYSTRPYRFDYWGQGTQVTVSS | high polyreactivity
36 | QVQLVESGGGLVQAGGSLRLSCAASGRIFGRYAMGWYRQAPGKERELVAAISRRGGTTYYADSVKGRFTISRDNAKNTVYLQMNSLKPEDTAVYSSNADTYGYGFDYWGQGTQVTVSS | high polyreactivity
37 | QVQLVESGGGLVQAGGSLRLSCAASGRIFGRYAMGWYRQAPGKERELVASIRSRGGSTYYADSVKGRFTISRDNAKNTVYLQMNSLIPEDTAVYYCAKTVTSGYYYAGRYDYWGQGTQVTVSS | high polyreactivity
38 | QVQLVESGGGLVQAGGSLRLSCAASGRIFGRYAMGWYRQAPGKERELVASISTGGGGTYYADSVKGRFTISRDNAKNTVYLQMNSLKPEDTAVYYCAKAWRGFWTKYDYWGQGTQVTVSS | low polyreactivity
39 | QVQLVESGGGLVQAGGSLRLSCAASGRIFGRYAMGWYRQAPGNERELVAAISSTGGRTYYADSVKGRFTISRDNAKNTVYLQMTSLKPEDTAVYYCAATYVHYPSMGYDYWGQGTQVTVSS | high polyreactivity
40 | QVQLVESGGGLVQAGGSLRLSCAASGRIFGRYTMGWYRQAPGKERELVAAISARGGSPNYADSVKGRFTISRDNAKNTVYLQLNSLIPEDTAVYYCNTVRVHGFPIDRIYDYWGQVTQVTVSS | high polyreactivity
41 | QVQLVESGGGLVQAGGSLRLSCAASGRIFGSYAMGSYRQAPGKERELVAAINWRGGSTFYADSVKGRFTISRDNAKNTVYLQMNSLKPEDTAVYYCARRGYRQSGDYWGQGTQVTVSS | low polyreactivity
42 | QVQLVESGGGLVQAGGSLRLSCAASGRIFGSYAMGWYIQAPGTERELVAAINRRGGSTFYADSVKGRFTISRDNAKNSVYLQMNSLKPEDTAVYYCARRGYRQSGDYWGQGTQVTLSS | low polyreactivity
43 | QVQLVESGGGLVQAGGSLRLSCAASGRIFGSYAMGWYRQAPGKERELVAAINWRGGSTFYADSVKGRFTISRDNAKNTVYLQMNSLKPEDTAVYYCARRGYRQSGDYWGQGTEVTVSS | low polyreactivity
